The values below come from patent US20090252683A1 (Amgen, published 2009).

The target in experiment [1] is cynomolgus CD3 antigen on cynomolgus PBMC / macaque T cells (Macaca fascicularis (cynomolgus), UniProt Q95LI5 22-117; Q95LI7 23-110; Q95LI8 22-103). Kind of experiment: cell-based or functional assay.
In experiment [2] the target is T1, human EpCAM antigen on Kato III cells or human EpCAM transfected CHO cells (human, UniProt P16422 24-265).
T1 sequence: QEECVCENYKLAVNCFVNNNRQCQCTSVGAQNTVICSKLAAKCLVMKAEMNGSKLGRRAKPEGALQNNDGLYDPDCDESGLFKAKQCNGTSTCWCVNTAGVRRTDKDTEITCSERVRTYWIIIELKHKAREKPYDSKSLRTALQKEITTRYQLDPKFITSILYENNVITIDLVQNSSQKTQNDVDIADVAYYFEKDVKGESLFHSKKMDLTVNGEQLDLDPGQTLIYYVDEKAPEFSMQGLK
Kind of experiment: cell-based or functional assay.

Experiment [3] deals with T2, biotin-linker-EFSELEQSGYYVC (human, reading uncertain; also: short linker, not given here, printed as biotin-linker-EFSELEQSGYYVC).
T2 construct: also called 13mer peptide of human CD3 epsilon, biotinylated N-terminally; peptide (1)
T2 peptide: {Biotin-linker}-EFSELEQSGYYVC
The experiment can be described thus: dot blot, 75 µg peptide on nitrocellulose, 3 µg/ml antibody. The text has this:
(§1) To verify the epitope of the human-like cross-species specific anti-CD3 antibody fragment described in Example 16 on human CD3 epsilon, the identified binding region as determined in Experiment 18 was further analyzed by a dot-blotting assay using a 13mer peptide covering the defined binding area of amino acid residues “FSELE” on human CD3 epsilon. This peptide comprises the amino acid sequence “[…]” (SEQ ID NO. 195) of human CD3 epsilon. The peptide exists in two forms and is either biotinylated N- or C-terminally. In case of the N-terminal labelling, a short linker connects the peptide with the biotin. As described in Example 18, the antibody fragment was converted to a murine IgG format with a murine gammal heavy chain comprising the VH region as shown in SEQ ID NO. 110 and a kappa light chain comprising the VL region as shown in SEQ ID NO. 168. The dot blotting was performed as follows. The Minifold I Spot Blot System from Schleicher & Schuell was used for immobilizing the peptides on a nitrocellulose membrane (Protran BA 85, 0.45 μm). 75 μg of each peptide in 100 μl TBS were filtered through the membrane using vacuum. After the filtration step the membrane was blocked with 1×TBS/1% (w/v) blocking reagent (BM Chemiluminescence Blotting Substrate (POD) of Roche Diagnostics GmbH) for 2 h. […]

Another experiment has as its target T3, EFSELEQSGYYVC-biotin (human).
T3 construct: also called 13mer peptide of human CD3 epsilon, biotinylated C-terminally; peptide (2)
T3 peptide: EFSELEQSGYYVC-biotin
The experiment is described as above.
Description: as §1

In experiment [4] the target is T4, cynomolgus EpCAM antigen on transfected CHO cells (cynomolgus, UniProt Q1WER1 24-265 (rhesus entry)).
T4 sequence: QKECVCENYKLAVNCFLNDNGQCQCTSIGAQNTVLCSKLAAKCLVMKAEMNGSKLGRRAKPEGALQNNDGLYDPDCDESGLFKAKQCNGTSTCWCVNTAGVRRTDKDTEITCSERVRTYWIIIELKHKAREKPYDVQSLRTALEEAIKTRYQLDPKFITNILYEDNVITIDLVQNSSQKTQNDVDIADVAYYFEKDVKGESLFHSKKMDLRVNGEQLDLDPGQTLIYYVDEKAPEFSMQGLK
The experiment can be described thus: cell-based or functional assay.

Experiment [5] concerns the target T1, human EpCAM antigen on Kato III cells …. The experiment can be described thus: FACS, Kato III cells (FIG. 8A), anti-His detection. The text has this:
FIG. 8: FACS assay for binding of 2G8LH×SEQ ID NO. 12, 2G8LH×SEQ ID NO. 10, 2G8LH×SEQ ID NO. 16, 2G8LH×SEQ ID NO. 14, 2G8HL×SEQ ID NO. 12, 2G8HL×SEQ ID NO. 10, 2G8HL×SEQ ID NO. 16 and 2G8HL×SEQ ID NO. 14 on Kato III (FIG. 8A) cells or cynomolgus EpCAM transfected CHO cells (FIG. 8B) and HPB-ALL cells. Antigen binding was clearly detectable for the anti EpCAM specificities as well as for the anti CD3 specificities. As a negative control for binding to cynomolgus EpCAM, the 5-10LH×SEQ ID NO.
Binding of the bifunctional constructs from cell culture supernatants or binding of purified bifunctional constructs to the human EpCAM antigen on Kato III cells or cynomolgus EpCAM transfected CHO cells and to the CD3 antigen on HPB-ALL cells was tested using an FACS assay. For that purpose 2.5×10⁵ cells were incubated with 50 μl supernatant or with 5 μg/ml of the purified constructs in 50 μl PBS with 2% FCS. The binding of the constructs was detected with an anti-His antibody (Penta-His Antibody, BSA free, obtained from Qiagen GmbH, Hilden, FRG) at 2 μg/ml in 50 μl PBS with 2% FCS. […] The samples were measured on a FACSscan (BD biosciences, Heidelberg, FRG). Antigen binding was clearly detectable for the anti EpCAM specificities as well as for the anti CD3 specificities (see FIG. 8). As a negative control for binding to cynomolgus EpCAM, the 5-10LH×SEQ ID NO. […] The 5-10LH part only binds to human EpCAM.
(In flow cytometry, cells or beads pass a laser one at a time.)

No end group written: not given here. *: point of attachment. Biotin = O=C1N[C@H]2[C@H](CS[C@H]2CCCCC(=O)*)N1; linker = not defined here

Chain of cynomolgus CD3 antigen on cynomolgus PBMC / macaque T cells (Q95LI5 22-117, chain 1 of 3): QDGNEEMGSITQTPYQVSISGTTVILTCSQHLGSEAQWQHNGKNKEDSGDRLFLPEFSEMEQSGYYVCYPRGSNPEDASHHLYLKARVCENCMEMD
Chain of cynomolgus CD3 antigen on cynomolgus PBMC / macaque T cells (Q95LI7 23-110, chain 2 of 3): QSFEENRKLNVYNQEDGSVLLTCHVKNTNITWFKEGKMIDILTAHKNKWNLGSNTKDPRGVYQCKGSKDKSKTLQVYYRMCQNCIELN
Chain of cynomolgus CD3 antigen on cynomolgus PBMC / macaque T cells (Q95LI8 22-103, chain 3 of 3): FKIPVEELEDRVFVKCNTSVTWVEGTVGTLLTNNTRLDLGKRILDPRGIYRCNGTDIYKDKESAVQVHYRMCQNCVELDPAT

B1: 5-10LH×SEQ ID NO. 12 bispecific single chain antibody (bispecific antibody)
chain: ELVMTQSPSSLTVTAGEKVTMSCKSSQSLLNSGNQKNYLTWYQQKPGQPPKLLIYWASTRESGVPDRFTGSGSGTDFTLTISSVQAEDLAVYYCQNDYSYPLTFGAGTKLEIKGGGGSGGGGSGGGGSEVQLLEQSGAELVRPGTSVKISCKASGYAFTNYWLGWVKQRPGHGLEWIGDIFPGSGNIHYNEKFKGKATLTADKSSSTAYMQLSSLTFEDSAVYFCARLRNWDEPMDYWGQGTTVTVSSGGGGSQAVVTQESALTTSPGETVTLTCRSSTGAVTTSNYANWVQEKPDHLFTGLIGGTNKRAPGVPARFSGSLIGDKAALTITGAQTEDEAIYFCALWYSNLWVFGGGTKLTVLGGGGSGGGGSGGGGSEVKLLESGGGLVQPKGSLKLSCAASGFTFNTYAMNWVRQAPGKGLEWVARIRSKYNNYATYYADSVKDRFTISRDDSQSILYLQMNNLKTEDTAMYYCVRHGNFGNSYVSWFAYWGQGTLVTVSAHHHHHH
For B1, the “EC50 (half maximal killing), FACS-based cytotoxicity, Kato III target cells, cynomolgus PBMC effector cells” value in experiment [1] amounted to 0.069 ng/mL. Also, the “EC50 (half maximal killing), FACS-based cytotoxicity, Kato III target cells, human PBMC effector cells” value in experiment [2] came out at 0.0015 ng/mL.

B2: cross-species specific anti-CD3 antibody (murine IgG1 comprising the VH chain shown in SEQ ID NO. 110 and the VL chain shown in SEQ ID NO. 168) (antibody, V domains shown)
VH: EVQLLESGGGLVQPGGSLKLSCAASGFTFNTYAMNWVRQAPGKGLEWVARIRSKYNNYATYYADSVKDRFTISRDDSKNTAYLQMNNLKTEDTAVYYCVRHGNFGNSYVSWFAYWGQGTLVTVSS
VL: ELVVTQEPSLTVSPGGTVTLTCRSSTGAVTTSNYANWVQQKPGQAPRGLIGGTNKRAPGTPARFSGSLLGGKAALTLSGVQPEDEAEYYCALWYSNLWVFGGGTKLTVL
notes: full IgG with a murine gamma1 heavy chain and a kappa light chain; also called human-like cross-species specific anti-CD3 antibody; cross-species specific anti-CD3 IgG1 antibody
With B2, the binding result (in experiment [3]; with EFSELEQSGYYVC-biotin) was “binds” throughout.

B3: 2G8HL×SEQ ID NO. 12 bispecific single chain antibody (bispecific antibody)
chain: EVQLQQSGAELVRSGASVKLSCTASGFNIKDYYLHWVKQRPEQGLEWIAWIDLENGDIKYAPKFQGKATITADTSSNTAYLQLSSLTSEDTAVYYCNPYYYGSNYDYAMDYWGQGTSVTVSSGGGGSGGGGSGGGGSDVVMTQTPLTLSVTIGQPASISCKSSQSLLYSNGKTYLNWILQRPGQSPKRLIYLVSKLDSGVPDRFTGSGSGTDFTLKISRVEAEDLGVYYCVQGTHFPLTFGAGTKLELKSGGGGSQAVVTQESALTTSPGETVTLTCRSSTGAVTTSNYANWVQEKPDHLFTGLIGGTNKRAPGVPARFSGSLIGDKAALTITGAQTEDEAIYFCALWYSNLWVFGGGTKLTVLGGGGSGGGGSGGGGSEVKLLESGGGLVQPKGSLKLSCAASGFTFNTYAMNWVRQAPGKGLEWVARIRSKYNNYATYYADSVKDRFTISRDDSQSILYLQMNNLKTEDTAMYYCVRHGNFGNSYVSWFAYWGQGTLVTVSAHHHHHH
Regarding B3, in experiment [4], the “EC50 (half maximal killing), FACS-based cytotoxicity, cynomolgus EpCAM transfected CHO target cells, cynomolgus PBMC effector cells” value came to 60.4 ng/mL and the “EC50 (half maximal killing), FACS-based cytotoxicity, cynomolgus EpCAM transfected CHO target cells, human PBMC effector cells” value was 3.64 ng/mL. In addition, the “EC50 (half maximal killing), FACS-based cytotoxicity, cynomolgus EpCAM transfected CHO target cells, cynomolgus PBMC effector cells” value in experiment [1] was determined as 60.4 ng/mL. In addition, the binding result in experiment [5] is given as “binds”.

B4: 5-10LH×SEQ ID NO. 14 bispecific single chain antibody (bispecific antibody)
chain: ELVMTQSPSSLTVTAGEKVTMSCKSSQSLLNSGNQKNYLTWYQQKPGQPPKLLIYWASTRESGVPDRFTGSGSGTDFTLTISSVQAEDLAVYYCQNDYSYPLTFGAGTKLEIKGGGGSGGGGSGGGGSEVQLLEQSGAELVRPGTSVKISCKASGYAFTNYWLGWVKQRPGHGLEWIGDIFPGSGNIHYNEKFKGKATLTADKSSSTAYMQLSSLTFEDSAVYFCARLRNWDEPMDYWGQGTTVTVSSGGGGSQVQLQQSGAELARPGASVKMSCKASGYTFTRSTMHWVKQRPGQGLEWIGYINPSSAYTNYNQKFKDKATLTADKSSSTAYMQLSSLTSEDSAVYYCASPQVHYDYNGFPYWGQGTLVTVSAGGGGSGGGGSGGGGSQVVLTQSPAIMSAFPGEKVTMTCSASSSVSYMNWYQQKSGTSPKRWIYDSSKLASGVPARFSGSGSGTSYSLTISSMETEDAATYYCQQWSRNPPTFGGGTKLQITHHHHHH
For the molecule B4, the “EC50 (half maximal killing), FACS-based cytotoxicity, Kato III target cells, cynomolgus PBMC effector cells” value in experiment [1] came to 0.087 ng/mL. In addition, the “EC50 (half maximal killing), FACS-based cytotoxicity, Kato III target cells, human PBMC effector cells” value in experiment [2] amounted to 0.0013 ng/mL.
